The values that follow come from patent US20210292390A1, “CHIMERIC ANTIGEN RECEPTORS” (Oxford University Innovation Limited, priority 2016, published 2021).

For this test, the system named is 2B4 Reay cells. In words: IL-2 secretion (ELISA) by hybridoma cells expressing chimeric receptors after CD6 crosslinking. It is filed as cell-based, mouse. The text has this:
The activity of the exemplary chimeric receptor was compared with that of a comparator chimeric receptor lacking the CD6-derived signalling region. Both chimeric receptor molecules contained the extracellular and transmembrane regions of human CD6 and the cytoplasmic region of mouse CD3 zeta. The exemplary chimeric receptor further comprised residues 623 to 668 from the C terminus of human CD6.
Murine T hybridoma cells were transduced to express either the exemplary or comparator chimeric receptors. Cells were assessed for their response to human CD6 monoclonal antibody immobilised on 96 well tissue culture plates. After incubation for 18 h at 37° C., the supernatants were analysed for the presence of mouse IL-2 by ELISA.
The activity of a comparator chimeric receptor (consisting of the extracellular region of human CD6 and the mouse CD3 zeta tail, effectively a first generation CAR in the cytoplasmic region) was investigated alongside the exemplary chimeric receptor illustrative of CARs or cells of the invention. […] The cells were stimulated with different concentrations of plate-bound T12.1 monoclonal antibody (mAb), a CD6 crosslinking antibody, overnight and secreted mouse IL-2 was measured by ELISA.
Background: An ELISA detects its analyte on a solid surface through an enzyme-linked reagent.

B1: chimeric receptor of SEQ ID NO.4: human CD6 extracellular and transmembrane regions, mouse CD3 zeta cytoplasmic region, plus human CD6 C terminus (protein)
chain: MWLFFGITGLLTAALSGHPSPAPPDQLNTSSAESELWEPGERLPVRLTNGSSSCSGTVEVRLEASWEPACGALWDSRAAEAVCRALGCGGAEAASQLAPPTPELPPPPAAGNTSVAANATLAGAPALLCSGAEWRLCEVVEHACRSDGRRARVTCAENRALRLVDGGGACAGRVEMLEHGEWGSVCDDTWDLEDAHVVCRQLGCGWAVQALPGLHFTPGRGPIHRDQVNCSGAEAYLWDCPGLPGQHYCGHKEDAGAVCSEHQSWRLTGGADRCEGQVEVHFRGVWNTVCDSEWYPSEAKVLCQSLGCGTAVERPKGLPHSLSGRMYYSCNGEELTLSNCSWRFNNSNLCSQSLAARVLCSASRSLHNLSTPEVPASVQTVTIESSVTVKIENKESRELMLLIPSIVLGILLLGSLIFIAFILRAKFSRSAETAANLQDPNQLYNELNLGRREEYDVLEKKRARDPEMGGKQQRRRNPQEGVYNALQKDKMAEAYSEIGTKGERRRGKGHDGLYQGLSTATKDTYDALHMQTLAPRTSSGEWYQNFQPPPQPPSEEQFGCPGSPSPQPDSTDNDDYDDISAA
Turning to B1, the “increase of IL-2 production as compared to a control receptor lacking the CD6-derived signalling region” value was “at least 2.5 fold”.
